According to paper PMC4650713, “Crystal structure of Bax bound to the BH3 peptide of Bim identifies important contacts for interaction” (Cell Death & Disease, 2015):

Tests used:
BaxΔC21 [1] = target: BaxΔC21 (UniProt Q07812)
BaxΔC21 [2] = target: BaxΔC21 (UniProt Q07812); assay: SPR; competition in solution: BaxΔC21 at 25 nM incubated with increasing concentrations of BH3 peptide in 10 mM HEPES, 150 mM NaCl, 3.4 mM EDTA, 0.005% Tween-20, pH 7.4 with 0.5% octylglucoside, injected onto a CM5 chip with immobilised BimBH3; Bim4E channel subtracted; IC50

Chain of BaxΔC21 (Q07812 1-171 C62S/C126S): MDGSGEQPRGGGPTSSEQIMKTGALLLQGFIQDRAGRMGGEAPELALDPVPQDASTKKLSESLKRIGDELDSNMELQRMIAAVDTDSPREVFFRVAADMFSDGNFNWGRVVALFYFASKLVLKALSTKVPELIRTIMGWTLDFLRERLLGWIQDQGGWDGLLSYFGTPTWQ

In the case of BimBH3 E145K (peptide), the core/latch dimer formation of BaxΔC21 triggered by the peptide with CHAPS (gel filtration) (BaxΔC21 [1]) is reported as > 50%, the IC50 (BaxΔC21 [2]) is reported as 2400 nM and the fold weaker binding than BimBH3 (BaxΔC21 [2]) is reported as 40 fold.

A fold loss of affinity against BimBH3 (BaxΔC21 [2]) of 3 fold was found for BimBH3 P144A/E145A (peptide) in this work.

A fold tighter binding than BidBH3 (BaxΔC21 [2]) of 5 fold was found for BimBH3 peptide in this work.
